Earlier results on one substance are cited in publication PMC4899099.

The Kd is the constant that tells how readily two partners part at equilibrium.

The series deals with Carboxypeptidase E (UniProt P04836).
UniProt P04836, sequence (P04836 42-475): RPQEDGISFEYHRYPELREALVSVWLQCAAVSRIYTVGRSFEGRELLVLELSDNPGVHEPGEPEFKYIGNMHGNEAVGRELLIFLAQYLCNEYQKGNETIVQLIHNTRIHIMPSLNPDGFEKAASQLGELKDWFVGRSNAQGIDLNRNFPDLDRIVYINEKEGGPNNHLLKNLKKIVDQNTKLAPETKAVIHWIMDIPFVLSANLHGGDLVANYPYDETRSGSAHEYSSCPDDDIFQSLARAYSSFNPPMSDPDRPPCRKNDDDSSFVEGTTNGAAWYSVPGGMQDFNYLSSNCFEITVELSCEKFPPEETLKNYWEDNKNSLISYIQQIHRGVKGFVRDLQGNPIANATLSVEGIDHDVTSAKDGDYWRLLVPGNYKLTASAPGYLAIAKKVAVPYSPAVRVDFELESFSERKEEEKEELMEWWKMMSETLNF

As for N-POMC(1-26) 1-26 (from UniProt P01190), the Kd was 6 µM.
